# Patent US20250197451A1 (CAPITAL MEDICAL UNIVERSITY SCHOOL OF STOMATOLOGY, published 2025)
# B1: peptide 146 (peptide)
# peptide: GKTGKQKRGPGFKYA
# B2: peptide 127 (peptide)
# peptide: KDMKKFGGPGRMKQS
# B3: peptide 13 (peptide)
# peptide: EIVSVRGFSLEEKLR
# B4: peptide 165 (peptide)
# peptide: LQTSPGSSSHLSPRP
# B5: peptide 181 (peptide)
# peptide: PPKTRESDHSRSSSP
# B6: peptide 155 (peptide)
# peptide: EEAPRRRSDEHSKKV
# B7: peptide 18 (peptide)
# peptide: AMEGKDFNYEYVQRE
# B8: peptide 163 (peptide)
# peptide: ELSGRKRASSLQTSP
# B9: peptide 182 (peptide)
# peptide: ESDHSRSSSPTAGPS
# B10: peptide 184 (peptide)
# peptide: TAGPSTEGAEGPEEK
# B11: peptide 145 (peptide)
# peptide: KCNHAGKTGKQKRGP
# B12: peptide 14 (peptide)
# peptide: RGFSLEEKLRSQLYQ
# B13: peptide 164 (peptide)
# peptide: KRASSLQTSPGSSSH
# B14: peptide 183 (peptide)
# peptide: RSSSPTAGPSTEGAE
# B15: peptide 63 (peptide)
# peptide: GWIHAVYTPVDSLVF
# B16: peptide 61 (peptide)
# peptide: KQGYTFFIPSGWIHA
# B17: peptide 72 (peptide)
# peptide: YPFYYEMCWYVLERY
# B18: peptide 6 (peptide)
# peptide: KKTVIYTKCFEFESA
# B19: peptide 45 (peptide)
# peptide: MKYPKVKKYCLMSVK
# B20: peptide 3 (peptide)
# peptide: EDHPPRKRHAAEKQK
# B21: peptide 87 (peptide)
# peptide: GRDRAPKPPTDGSTS
# B22: peptide 59 (peptide)
# peptide: RVERCQRIELKQGYT
# B23: peptide 82 (peptide)
# peptide: SWLEMEEEACDQQPQ
# B24: peptide 52 (peptide)
# peptide: RGGKIFWLIPPTLHN
# B25: peptide 34 (peptide)
# peptide: QRDKLYNVISLEFSH
# B26: peptide 4 (peptide)
# peptide: RKRHAAEKQKKKTVI
# B27: peptide 58 (peptide)
# peptide: IFLGDRVERCQRIEL
# B28: peptide 49 (peptide)
# peptide: FHIDFGGTSVWYHVF
# B29: peptide 79 (peptide)
# peptide: IDAPRKPSIDGFSSD
# B30: peptide 35 (peptide)
# peptide: YNVISLEFSHTKLEH
# B31: peptide 53 (peptide)
# peptide: FWLIPPTLHNLALYE
# B32: peptide 7 (peptide)
# peptide: YTKCFEFESATQRPI
# B33: peptide 67 (peptide)
# peptide: HSFNVPMQLRIYEIE
# B34: peptide 39 (peptide)
# peptide: TVVDLVDWVDNMWPQ
# B35: peptide 9 (peptide)
# peptide: TQRPIDRQRYDENED
# B36: peptide 43 (peptide)
# peptide: QTEATNAIAEMKYPK
# B37: peptide 80 (peptide)
# peptide: KPSIDGFSSDSWLEM
# B38: peptide 93 (peptide)
# peptide: PKAPALRFLKRTLSN
# B39: peptide 55 (peptide)
# peptide: LALYEEWVLSGKQSD
# B40: peptide 48 (peptide)
# peptide: GCFTDFHIDFGGTSV
# B41: peptide 75 (peptide)
# peptide: VYCVTQRSHLTQEYQ
# B42: peptide 68 (peptide)
# peptide: PMQLRIYEIEDRTRV
# B43: peptide 88 (peptide)
# peptide: PKPPTDGSTSPTSTP
# B44: peptide 28 (peptide)
# peptide: RLVDVMDVNTQKGTE
# B45: peptide 78 (peptide)
# peptide: RESMLIDAPRKPSID
# B46: peptide 81 (peptide)
# peptide: GFSSDSWLEMEEEAC
# B47: peptide 29 (peptide)
# peptide: MDVNTQKGTEMSMSQ
# B48: peptide 5 (peptide)
# peptide: AEKQKKKTVIYTKCF
# B49: peptide 37 (peptide)
# peptide: TKLEHLVKRPTVVDL
# B50: peptide 42 (peptide)
# peptide: HLKEKQTEATNAIAE
# B51: peptide 94 (peptide)
# peptide: LRFLKRTLSNESEES
# B52: peptide 56 (peptide)
# peptide: EWVLSGKQSDIFLGD
# B53: peptide 47 (peptide)
# peptide: LMSVKGCFTDFHIDF
# B54: peptide 66 (peptide)
# peptide: GGNILHSFNVPMQLR
# B55: peptide 60 (peptide)
# peptide: QRIELKQGYTFFIPS
# B56: peptide 85 (peptide)
# peptide: EEEEKDEEGEGRDRA
# B57: peptide 30 (peptide)
# peptide: QKGTEMSMSQFVRYY
# B58: peptide 51 (peptide)
# peptide: WYHVFRGGKIFWLIP
# B59: peptide 27 (peptide)
# peptide: LVGSRRLVDVMDVNT
# B60: peptide 36 (peptide)
# peptide: LEFSHTKLEHLVKRP
# B61: peptide 76 (peptide)
# peptide: QRSHLTQEYQRESML
# B62: peptide 86 (peptide)
# peptide: DEEGEGRDRAPKPPT
# B63: peptide 40 (peptide)
# peptide: VDWVDNMWPQHLKEK
# B64: peptide 97 (peptide)
# peptide: VKSTTLAVDYPKTPT
# B65: peptide 62 (peptide)
# peptide: FFIPSGWIHAVYTPV
# B66: peptide 95 (peptide)
# peptide: RTLSNESEESVKSTT
# B67: peptide 38 (peptide)
# peptide: LVKRPTVVDLVDWVD
# B68: peptide 46 (peptide)
# peptide: VKKYCLMSVKGCFTD
# B69: peptide 41 (peptide)
# peptide: NMWPQHLKEKQTEAT
# B70: peptide 31 (peptide)
# peptide: MSMSQFVRYYETPEA
# Target: T1, biotin-labelled EZH2 protein (UniProt Q15910 1-746, limits assumed, biotin label (EZ-link NHS-PEO4-Biotinylation kit))
# T1 construct: Probe in solution (1 ug/ml) on the KDM2B peptide microarray; also called NHS-PEO4-Biotinylation-labelled EZH2 protein; recombinant protein
# Experiment: KDM2B peptide array probed with biotin-EZH2 1 ug/ml, SA-HRP/ECL; Remark: noise
# Experimental: (§1) After blocking, the polypeptide microarray was incubated with biotin-labeled target protein for hybridization, visualized with the chemical chromogenic substrate and imaged using a Chempchemi digital imager. The image of colored polypeptide microarray was analyzed for the optical density of the colored points. Particularly, the optical density of each colored point was calculated using the optical density of the respective surrounding background as a reference for background correction. The highest optical density value of the colored point on membrane was set to 100%, and the optical density value of the remaining colored points was converted into percentages relative to the highest value. The points with an optical density percentage of more than 30% on the polypeptide membrane and also with an optical density percentage of less than 30% on the negative membrane were defined as positive colored points.
# (§2) For the hybridization experiment, a solution of NHS-PEO4-Biotinylation-labelled EZH2 protein (1 μg/ml) was used for the hybridization of the polypeptide microarray. Streptavidin-HRP was used to amplify the reaction signal according to the experimental procedure and conditions described above, and the time of color development was 5 minutes.
# 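Further: 100% is the highest background-corrected spot optical density on the membrane.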
# T1 sequence (Q15910 whole entry): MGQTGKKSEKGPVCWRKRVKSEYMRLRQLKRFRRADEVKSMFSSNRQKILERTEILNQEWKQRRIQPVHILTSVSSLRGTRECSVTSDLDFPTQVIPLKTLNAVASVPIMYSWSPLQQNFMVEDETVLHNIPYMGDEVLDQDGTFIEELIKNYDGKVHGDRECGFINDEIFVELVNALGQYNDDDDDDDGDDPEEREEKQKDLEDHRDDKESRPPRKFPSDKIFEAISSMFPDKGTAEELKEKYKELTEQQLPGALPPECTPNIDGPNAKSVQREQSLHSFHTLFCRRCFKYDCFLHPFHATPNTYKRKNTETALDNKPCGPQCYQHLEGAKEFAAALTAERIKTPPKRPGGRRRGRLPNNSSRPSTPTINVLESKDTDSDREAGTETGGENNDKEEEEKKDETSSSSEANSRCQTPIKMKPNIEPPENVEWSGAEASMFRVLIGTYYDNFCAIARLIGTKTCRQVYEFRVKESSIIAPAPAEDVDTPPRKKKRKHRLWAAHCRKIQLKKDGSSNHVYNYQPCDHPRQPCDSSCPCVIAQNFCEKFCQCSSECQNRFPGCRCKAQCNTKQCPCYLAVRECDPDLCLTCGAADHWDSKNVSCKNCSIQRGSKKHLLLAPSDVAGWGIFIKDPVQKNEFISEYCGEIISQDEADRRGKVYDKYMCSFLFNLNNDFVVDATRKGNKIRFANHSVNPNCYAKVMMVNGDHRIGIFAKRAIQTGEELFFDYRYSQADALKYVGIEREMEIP
row,Intensity (%),Binder
1,0.01%,B1
2,0%,B2
3,0.05%,B3
4,0%,B4
5,0.3%,B5
6,0%,B6
7,0%,B7
8,0%,B8
9,0.36%,B9
10,0%,B10
11,0%,B11
12,0.07%,B12
13,0.34%,B13
14,0%,B14

# Target: T1, biotin-labelled EZH2 protein
# Experiment: KDM2B peptide array probed with biotin-EZH2 1 ug/ml, SA-HRP/ECL;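 further: Background-corrected optical density of each spot on the membrane, given as percent of the brightest spot (100%), color developed for 5 minutes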
# Experimental: as §1, §2
row,Intensity (%),Binder
1,1.74%,B15
2,0.85%,B16
3,0.04%,B17
4,27.5%,B18
5,7.77%,B19
6,0%,B20
7,0%,B21
8,11.4%,B22
9,0%,B23
10,0.55%,B24
11,0%,B25
12,0%,B26
13,15.6%,B27
14,0%,B28
15,1.13%,B29
16,5.95%,B30
17,0.7%,B31
18,0%,B32
19,0%,B33

row,Intensity (%),Binder
1,0.27%,B34
2,0%,B35
3,0%,B36
4,6.61%,B37
5,0%,B38
6,0%,B39
7,0%,B40
8,0%,B41
9,6.33%,B42
10,0%,B43
11,0%,B44
12,1.74%,B45
13,7.19%,B46
14,5.32%,B47
15,97%,B48
16,0.73%,B49
17,2.03%,B50
18,0%,B51
19,24.6%,B52

row,Intensity (%),Binder
1,100%,B53
2,0.54%,B54
3,0.3%,B55
4,0%,B56
5,1.2%,B57
6,0%,B58
7,0%,B59
8,0.89%,B60
9,0%,B61
10,0.03%,B62
11,0%,B63
12,0%,B64
13,2.54%,B65
14,0%,B66
15,0%,B67
16,100%,B68
17,0%,B69
18,19.2%,B70
